Results reported in the RNAGym collection of RNA variant scans (doi:10.1093/molbev/msab373).

B1: Azoarcus group I ribozyme (parent)
chain: GUGCCUUGCGCCGGGAAACCACGCAAGGGAUGGUGUCAAAUUCGGCGAAACCUAAGCGCCCGCCCGGGCGUAUGGCAACGCCGAGCCAAGCUUCGGCGCCUGCGCCGAUGAAGGUGUAGAGACUAGACGGCACCCACCUAAGGCAAACGCUAUGGUGAAGGCAUAGUCCAGGGAGUGGCGAAAGUCACACAAACCGG

Variants of: B1
Assay: reverse-splicing fitness (ratio to wild type); higher = more active; in vitro selection; Mg2+ level not given
In short: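 An in vitro group I ribozyme library with randomized positions was T7-transcribed and gel-purified. In triplicate, 10 pmol RNA in EPPS pH 7.5 was reacted with 50 pmoles of a 30-nt RNA substrate for 1 h at 37 °C across several added MgCl2 levels (1–48 mM), then stopped with EDTA. Products were reverse transcribed from a substrate-complementary primer, PCR-amplified and sequenced (HiSeq 4000). Fitness is a variant's read proportion after selection over that before, normalised to wild type.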

Variant | reverse-splicing fitness
C82U A120G A145C C169A U176A | 0.00959
C82U A120G A145C C169A U176G | 0.00332
C82U A120G A145U C150G C169A U176G | 0.00411
C82U A120G A145U C150G C169A U176C | 0.00949
C82U A120G A145U C150G C169A U176A | 0.00927
C82U A120G A145C C150A C169A U176A | 0.0124
C82U A120G A145C C150A C169A U176G | 0.00326
C82U A120G A145C C150A C169A U176C | 0.0049
C82U A120G A145G C169U U176C | 0.0187
C82U A120G A145G C169U U176G | 0.00378
C82U A120G A145G C169U U176A | 0.0237
C82U A120G A145G C169G U176G | 0.00333
C82U A120G A145G C169G U176A | 0.0223
C82U A120G A145G C169G U176C | 0.0317
C82U A120G A145C C150U C169G U176A | 0.0197
C82U A120G A145C C150U C169G U176C | 0.0111
C82U A120G A145C C150U C169G U176G | 0.0041
C82U A120G A145G C169A U176A | 0.0221
C82U A120G A145G C169A U176C | 0.0335
C82U A120G A145G C169A U176G | 0.00333
C82U A120G A145G C150U C169A U176C | 0.0154

Variant | reverse-splicing fitness
C82U A120G A145G C150U C169A U176G | 0.00486
C82U A120G A145G C150U C169A U176A | 0.0153
C82U A120C U176C | 0.0725
C82U A120C U176G | 0.00931
C82U A120C U176A | 0.048
C82U A120G A145U | 0.0237
C82U A120G A145C | 0.0203
C82U A120G A145G | 0.0245
C82U A120C C169U | 0.0213
C82U A120G A145U C150G C169U U176G | 0.0036
C82U A120G A145U C150G C169U U176C | 0.0108
C82U A120G A145U C150G C169U U176A | 0.0132
C82U A120G A145C C150G C169G U176C | 0.00713
C82U A120G A145C C150G C169G U176G | 0.00336
C82U A120G A145C C150G C169G U176A | 0.00838
C82U A120G A145U C150A C169G U176C | 0.0133
C82U A120G A145U C150A C169G U176A | 0.0114
C82U A120G A145U C150A C169G U176G | 0.0037
C82U A120G A145C C150G | 0.00804
C82U A120G A145C C150U | 0.0102
C82U A120G A145C C150A | 0.00664

Variant | reverse-splicing fitness
C82U A120G A145U C150A | 0.00772
C82U A120G A145U C150G | 0.00697
C82U A120G A145C U176A | 0.0109
C82U A120G A145C U176C | 0.0121
C82U A120G A145C U176G | 0.00356
C82U A120G A145U C150A C169A U176C | 0.00898
C82U A120G A145U C150A C169A U176A | 0.0112
C82U A120G A145U C150A C169A U176G | 0.00335
C82U A120G A145G C150U C169G | 0.0218
C82U A120G A145G C150U C169A | 0.0162
C82U A120G A145G C150U C169U | 0.0183
C82U A120G A145U C150A C169U U176G | 0.00395
C82U A120G A145U C150A C169U U176C | 0.014
C82U A120G A145U C150A C169U U176A | 0.022
C82U A120G A145C C169G | 0.0218
C82U A120G A145C C169A | 0.014
C82U A120G A145C C169U | 0.0172
C82U A120G A145C C150G C169U U176C | 0.0104
C82U A120G A145C C150G C169U U176A | 0.0158
C82U A120G A145C C150G C169U U176G | 0.00443
C82U A120G A145U C150G C169G U176A | 0.00669

Variant | reverse-splicing fitness
C82U A120G A145U C150G C169G U176C | 0.00534
C82U A120G A145U C150G C169G U176G | 0.00361
C82U A120G A145C C150G U176C | 0.00608
C82U A120G A145C C150G U176A | 0.00438
C82U A120G A145C C150G U176G | 0.00257
C82U A120C C169G U176G | 0.00419
C82U A120G A145C C150A C169G | 0.00758
C82U A120G A145C C150A C169A | 0.00745
C82U A120G A145C C150A C169U | 0.00698
C82U A120G A145G U176G | 0.00485
C82U A120G A145G U176A | 0.0128
C82U A120G A145G U176C | 0.019
C82U A120G A145G C150A C169G U176C | 0.0255
C82U A120G A145G C150A C169G U176G | 0.00413
C82U A120G A145G C150A C169G U176A | 0.0157
C82U A120G A145C C169U U176A | 0.0224
C82U A120G A145C C169U U176C | 0.0127
C82U A120G A145C C169U U176G | 0.00314
C82U A120G A145C C150G C169A | 0.00904
C82U A120G A145C C150G C169G | 0.00837
C82U A120G A145C C150G C169U | 0.00822
